Results on 19 variants are retold here after the RNAGym collection of RNA variant scans (doi:10.1073/pnas.2313332121).

Variants at the floor of the assay were thinned out.

B1: TPR 5TU (parent)
chain: GGAUCUUCUCGAUCUAACAAAAAAGACAAAUCUGCCACAAAGCUUGAGAGCAUCUUCGGAUGCAGAGGCGGCAGCCUUCGGUGGCGCGAUAGCGCCAACGUUCUCAACUAUGACACGCAAAACGCGUGCUCCGUUGAAUGGAGUUUAUCAUG

Variants of B1 are the subject of this data set. The experiment in a line: polymerase ribozyme fitness, log enrichment relative to wild type (log ratio); higher = more active; in vitro selection for triplet polymerase activity. A digest of the protocol:
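Only genotypes with ≥10 input reads and ≥1 read per output were kept after Illumina sequencing of input and output libraries. These libraries were PCR-built, transcribed mutants of each subunit of a heterodimeric triplet polymerase ribozyme, each put through one triplicate in vitro selection round with frozen incubation at −7 °C, gel excision of extended constructs, streptavidin-bead capture and RT-PCR. Fitness is a logarithmic ratio of genotype enrichment to wild-type enrichment, from inverse-variance-weighted replicate averages, with the logarithm in base 2.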
On to GGAUCUUCUCGAUCUAACAAAAAAGACAAAUCUGCCACAAUGCUUGAGAGCAUCUUCGGAUGCAGAGGCGGCAGCCUUCGGUGGCGCGAUAGCGCCAACGUUCUCAACUAUGACACGCAAAACUCGUGCUCCGUUGAAUGGAGUUUAUCAUG [A41U G124U], for which the “polymerase ribozyme fitness (log ratio)” value was -0.896.

Regarding GGAUCUUCUCGAUCUAACAAAAAAGACAAAUCUGCCACAAUGCUUGAGAGCAUCUUCGGAUGCAGAGGCGGCAGCCUUCGAUGCAGCGAUAGCGCUAACGUUCUCAACUAUGACACGCAAAACGCAUGCUCCGUUGAAUGGAGUUUAUCAUG [A41U G81A G84C C85A C96U G126A], the “polymerase ribozyme fitness (log ratio)” value is at most -4.2.

As for GGAUCUUCUCGAUCUAACAAAAAAGACAAAUCUGCCACAAUGCUUGAGAGCAUCUUCGGAUGCAGAGGCGGCAGCCUUCGGUCGCGCGAUAGCGCCAACGUUCUCAACUGUGACACGCAAAACGCAUGCUCCGUUGAAUGGAGUUUAUCAUG [A41U G83C A110G G126A], the “polymerase ribozyme fitness (log ratio)” value was at most -4.2.

With GGAUCUUCUCGAUCUAACAAAAAAGACAAAUCUGCCACAAUGCUUGAGAGCAUCAUCGGAUGCAGAGGCGGCAGCCUUUGGUAGCGCGAUAGCGCCAACGUUCUCAACUAUGACACGCAAAACGCGUGCUCCGUUGAAUGGAGUUUAUCAUG [A41U U55A C79U G83A], the “polymerase ribozyme fitness (log ratio)” value was at most -4.2.

For the variant GGAUCUUCUCGAUCUAACAAAAAAGACAAAUCUGCCACAAUGCUUGAGAGCAUCUUCGGAUGCAGAGGCGGCAGCCUUCGGUAGCGCGAUAGCGCCAACGUUCUCAACUAUGACACGCAAAACGCGUGCUCCGUUGAAUGGAGUUUAUCUUG [A41U G83A A150U], the “polymerase ribozyme fitness (log ratio)” value was -0.63.

For GGAUCUUCUCGAUCUAACAAAAAAGACAAAUCUGCCACAAUGCUUGAGAGCAUCUUCGGAUGCAGAGGCGGCAGCCUUCGGUGGCGCGAUAGCGCCAACGUUGUCAACUAUGACACGCAAAACGCGUUCUCCGUUGAAUGGAGUUUAUCAUG [A41U C103G G128U], the “polymerase ribozyme fitness (log ratio)” value was at most -4.2.

As for GGAUCUUCUCGAUCUAACAAAAAAGACAAAUCUGCCACAAUGCUUGAGAGCAUCUUCAGAUGCAGAGGCGGCAUCCUUCGGUGGCGCGAUAGCGCCAACGUUCUCAAAUAUGACACGCAGAACGCGUGCUCCGUUGAAUGAAGUUUAUCAUG [A41U G58A G74U C108A A120G G141A], the “polymerase ribozyme fitness (log ratio)” value is at most -4.2.

In the case of GGAUCUUCUCGAUCUAACAAAAAAGACAAAUCUGCCACAAUGCUUGAGAGCAACUUCGGAUGCAGAGGCGGCACCCUUCGGCGGCGCGAUAGCGCCAACGUUCUCAACUAUGACACGCAAAACGCGUGCUCCGUUGAAUGGAGUUUAUCAUG [A41U U53A G74C U82C], the “polymerase ribozyme fitness (log ratio)” value was at most -4.2.

In the case of GGAUCUUCUCGAUCUAACAAAAAAGACAAAUCUGCCACAAUGCUUUAGAGCUUCUUCGGAUGCAGAGGCGGCAGCCUUCGGUGGCGCGAUAGCGCCAACGUUCUCAACUAUGACACGCAAAACGCGUGCUCCGUUGAAUGGAGUUUAUCAUG [A41U G46U A52U], the “polymerase ribozyme fitness (log ratio)” value was -4.03.

Consider GGAUCUUCUCGAUCUAACAAAAAAGACAAAUCUGCCACAAUGCUUGAGAGCAUCUUCGGAUGCAGAGGCGGCAGCCUUCGGGGGCUCGAUAGCGCCUACGUUCUCAACUAUGACACGCAAAACCCGUGCUCCGUUGAAUGGAGUUUAUCAUG [A41U U82G G86U A97U G124C], for which the “polymerase ribozyme fitness (log ratio)” value was -3.18.

With GGAUCUUCUCGAUCUAACAAAAAAGACAAAUCUGCCACAAUGCUUGAGAGCAUCUUCGGAUGCAGAGGCGGCAGCCUUCGGUAGCGCGAUAGCGCCAACGUUCUCAACUAUGACACGCAAAACGCGUGCUCCGUUGAAUGGAGUUUAUCAUG [A41U G83A], the “polymerase ribozyme fitness (log ratio)” value is -0.754.

As for GGAUCUUCUCGAUCUAACAAAAAAGACAAAUCUGCCACAAUGCUUGAGAGCAUCUUCGGAUGCAGAGGCGGCAGCCUUCGGUUGCGCGAUAGCGCCAACGUUCUCAACUAUGACACGCAAAACGCGUGCUCCGUUGAAUGGAGUUUAUCAUG [A41U G83U], the “polymerase ribozyme fitness (log ratio)” value was -1.35.

In the case of GGAUCUUCUCGAUCUAACAAAAAAGACAAAUCUGCCACAAUGCUUGAGAACAUCUUCGGAUGCAGAGGCGGCAGCCUUCGGUGGCGCGAUAGCGCCAACGUUCUCAACUAUGACACGCAAAACGCGUGCUCCGUUGAAUGGAGUUUAUCAUG [A41U G50A], the “polymerase ribozyme fitness (log ratio)” value was -2.68.

On to GGAUCUUCUCGAUCUAACAAAAAAGACAAAUCUGCCACAAUGCUUGAGAGCAUCUUCGGAUGCAGAGGCGGCAGCCUUCGGUGGCGCGAUAGCGCCAACGUUGUCAACUAUGGCACGCAAAACGAGUGCUCCGUUGAAUGGAGUUUAUCAUG [A41U C103G A113G C125A], for which the “polymerase ribozyme fitness (log ratio)” value was at most -4.2.

As for GGAUCUUCUCGAUCUAACAAAAAAGACAAAUCUGCCACAAUGCUUGAGAGCAUCUUCGAAUGCAGAGGCGGCGGCCUUCGGUGGCGCGUUAGGGCCAACGUUCUCAGCUAUGACACGCAAAACGCGUGCUCCGUUGAAUGGAGUUUAUCAUG [A41U G59A A73G A89U C93G A107G], the “polymerase ribozyme fitness (log ratio)” value is at most -4.2.

Regarding GGAUCUUCUCGAUCUAACAAAAAAGACAAAUCUGCCACAAUGCUUGAGAGCAUCUUCGGAUGCAGAGGCGGCAGCCUUCGGAGGCGCGAUAGCGCCAACGUUCUCAACUAUGACACGCAAAACGCGUGCUCCGUUGAAUGGCGUUUAUCAUG [A41U U82A A142C], the “polymerase ribozyme fitness (log ratio)” value is -2.88.

With GGAUCUUCUCGAUCUAACAAAAAAGACAAAUCUGCCACAAUGCUUGAGAUCAUCUUCGGAUGCUGAGGCGGCAGCCUUCGGUGGCGCGAUAGCGCCAACGUUCUCAACUAUGACACGGAAAACGCGUGCUCCGUUGAAUGGAGUUUAUCCUG [A41U G50U A64U C118G A150C], the “polymerase ribozyme fitness (log ratio)” value is at most -4.2.

Turning to GGAUCUUCUCGAUCUAACAAAAAAGACAAAUCUGCCACAAUGCUUGAGACCAUCUUCGGAUGCAGAGGCGGCAGCUUUCGGUGGCGCGAUAGGGCCAACGUUCUCAACUAUGACACGCAAAACGCGUGCUCCGUUGAGUGGAGUUUAUCUUG [A41U G50C C76U C93G A138G A150U], the “polymerase ribozyme fitness (log ratio)” value was at most -4.2.

For GGAUCUUCUCGAUCUAACAAAAAAGACAAAUCUGCCACAAUGCUUGAGAGCAUCAUCGGAUGCAGAGGCGGCAGCCUUCGGUGGAGCGAUAGCGCCAACGUUCUCAACUAUGACACGCAAAACGCGUGCUCCGUUGAAUGGAGUUUAUCUUG [A41U U55A C85A A150U], the “polymerase ribozyme fitness (log ratio)” value is -2.65.
